The target in assay [1] is h2ax_human H2AX (UniProt P16104).
For assay [2] the target is unchanged. This is another data set of the same source.
Assay [3] has the same target. This is another data set of the same source.

On to “Mediator of DNA damage checkpoint protein 1 (Homo sapiens), Q14676 K1936M”, for which the “effect of a mutation on the interaction” value is listed as “decreasing interaction” with h2ax_human H2AX [1] and “disrupting interaction” in the assay with h2ax_human H2AX [2].
Turning to “Mediator of DNA damage checkpoint protein 1 (Homo sapiens), Q14676 T1898V”, the “effect of a mutation on the interaction” value with h2ax_human H2AX [3] was “decreasing interaction”.
On to “Mediator of DNA damage checkpoint protein 1 (Homo sapiens), Q14676 R1933Q”, for which the “effect of a mutation on the interaction” value with h2ax_human H2AX [3] is on record as “disrupting interaction”.

(Values after IntAct's records for PubMed 16377563.)
